Data on one molecule can be found in patent publication US20040072184A1.

In one test the target is T1, PKB-sub peptide.
T1 sequence (peptide): CKRPRAASFAE
The test is described as follows: cell-based or functional assay.

A further test addresses T2, CapK peptide.
T2 sequence (peptide): CGRTGRRNSI
The test is described as follows: cell-based or functional assay.

B1: GST-SGK2 fusion protein (enzyme, not shown: a dimerising Fc or GST)
chain: MNSSPAGTPSPQPSRANGNINLGPSANPNAQPTDFDFLKVIGKGNYGKVLLAKRKSDGAFYAVKVLQKKSILKKKEQSHIMAERSVLLKNVRHPFLVGLRYSFQTPEKLYFVLDYVNGGELFFHLQRERRFLEPRARFYAAEVASAIGYLHSLNIIYRDLKPENILLDCQGHVVLTDFGLCKEGVEPEDTTSTFCGTPEYLAPEVLRKEPYDRAVDWWCLGAVLYEMLHGLPPFYSQDVSQMYENILHQPLQIPGGRTVAACDLLQSLLHKDQRQRLGSKADFLEIKNHVFFSPINWDDLYHKRLTPPFNPNVTGPADLKHFDPEFTQEAVSKSIGCTPDTVASSSGASSAFLGFSYAPEDDDILDC
Consider B1, for which, in the test with PKB-sub peptide, the kinase activity, PKB sub (CCPM1); GST-SGK2 from Hi5 cells treated with Calyculin A was 92500 CCPM1; the kinase activity, PKB sub (CCPM1); GST-SGK2 from Hi5 cells treated with Microcysteine came to 217 CCPM1; the kinase activity, PKB sub (CCPM1); GST-SGK2 from Hi5 cells treated with Okadaic Acid is 132000 CCPM1; the kinase activity, PKB sub (CCPM1); GST-SGK2 from untreated Hi5 cells was determined as 979 CCPM1. In the test with CapK peptide, this molecule registered a kinase activity, CapK sub (CCPM1); GST-SGK2 from Hi5 cells treated with Calyculin A of 59300 CCPM1; a kinase activity, CapK sub (CCPM1); GST-SGK2 from Hi5 cells treated with Microcysteine of 330 CCPM1; a kinase activity, CapK sub (CCPM1); GST-SGK2 from Hi5 cells treated with Okadaic Acid of 162000 CCPM1; a kinase activity, CapK sub (CCPM1); GST-SGK2 from untreated Hi5 cells of 1080 CCPM1.
